First the molecules themselves.
B1: TPR t1 (parent)
chain: GACCAAUCUGCCCUCAGAGCUCGAGAACAUCUUCGGAUGCAGAGGAGGCAGGCUUCGGUGGCGCGAUAGCGCCAACGUCCUCAACCUCCAAUGCAUCCCACCACAUGAUGAUGCCUGAAGAGCCUUGGUUUUUUG

This data set covers variants of B1. Description: polymerase ribozyme fitness, log enrichment relative to wild type (log ratio); higher = more active; in vitro selection for triplet polymerase activity. In outline:
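Streptavidin-bead capture of gel-excised extended constructs, followed by RT-PCR, closed a single triplicate in vitro selection round. That round began by annealing PCR-built, transcribed mutant libraries of each subunit of a heterodimeric triplet polymerase ribozyme with a biotinylated primer, the partner subunit and triplets, then incubating them frozen at −7 °C. After Illumina sequencing of inputs and outputs, genotypes needed ≥10 input reads and ≥1 read per output. Fitness is the base-2 logarithm of genotype enrichment over wild-type enrichment, using inverse-variance-weighted replicate averages.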
In the case of GACCAAUCUGCCCUCAGAGCUCGAGAACAUCUUCGGAUGCAGAGGACUCAGGCUUCGGUGGUGCGAUAGCGCCAACGUCCUCAAUCUCCAAUGCAUCCCACCACAUGUUGUUGCCUGAACACCCUUGGUUUUUUG [G47C G48U C62U C85U A108U A111U G120C G122C], the “polymerase ribozyme fitness (log ratio)” value was -6.85.

On to GACCAAUCUGCCCUCAGAGCUCGAGACCAUCUUCGGAUGCAGCGGAGGCAGGCUUCGGUGGCGCGAUAGCGCCAACGUCCUCAACCUCCAAUGCAUCCCACCACAUGAUGAUGUCUGAAGAGCCUUGGUUUUUUG [A27C A43C C114U], for which the “polymerase ribozyme fitness (log ratio)” value is -4.33.

As to GACCAAUCUGCCCUCAGAGCUCGAGAACAUCUUCGGUUGCCGAGGAGGCAGGCUUCGGUGGCGAGAUAGCGCCAACGUCCUCAACCUCCAAUGCAUCCCACCACAUGAAGAUGCCUGAAGAGCCUUGUUUUUUUG [A37U A41C C64A U109A G128U], the “polymerase ribozyme fitness (log ratio)” value was -5.77.

Take GACCAAUCUGCCUUCAGAGCUCGAGAACUUCUUCGGAUGCAGAGGAGGCAGGCUUCGGUGGCGCGAUAGCGCCAACGUCCUCAACCUCCAAUGCAUCCCACUACAUGAUGAUGCCUGAAGAGCCUUGGUUUUUUG [C13U A29U C102U]: the “polymerase ribozyme fitness (log ratio)” value was -3.96.

On to GACCAAAAUGCCCUCAGAGCUCGAGAACAUCUUCGGGUGCAGAGGAGGCAGGCUUCGGGGGUGCGAUAGCGCCAACGUCCUCAACCUUCAAUGCAUCCCACCACAUGAUGAUCCCUGAAGAGCCUUGGUUUUUUG [U7A C8A A37G U59G C62U C88U G113C], for which the “polymerase ribozyme fitness (log ratio)” value is -3.69.

Turning to GACCAAUCUGUCCUCAGAACUCGAGAACAUCUUCGGAUGCAGAGGAGGCAGGGUACGGUGGCGCGAUAGCGCCAACGUCCUCAACCUCCACUGCAUCCCACCACAUGAUGAUGCCUGAAGAGCCUUGGUUUUUUG [C11U G19A C53G U55A A91C], the “polymerase ribozyme fitness (log ratio)” value is -2.36.

For the variant GACGAAUCUACCCUCAGAGCUCGAGAACAUCUUCGGAUGCAGAGGAGGCAGGCUUCGGUGGCGCGAUAGCGCCAACGUCCUCAACCUCCAAUGCAUCCCACCACAUGAUGAUGCCUGAAGAGCCUUGGUUUUUUG [C4G G10A], the “polymerase ribozyme fitness (log ratio)” value was -1.4.

In the case of GACCAAUCUGCCCUCAAAGGUCGAGAACAUCUUCGGAUGCAGAGGAGGCAGGCUUCGGUGGCGCGAUAGCGCCAACGUCCUCAACCUCCAAUGCAUCCCACCACAUGAUGAUGCCUGAAGAGCCUUGGUUUUUUG [G17A C20G], the “polymerase ribozyme fitness (log ratio)” value is -4.82.

As for GACCAAUCUGGCCUCAGAGCUCGAGAACAUCUUCGGAUGGAUAGGAGGCAGGCUUCGGUGGCGCGAUAGCGCGAACGUCCUCAACCACCAAUGCAUCCCACCACAUGAUGAUGCCUGAAGAGCCUUGGUUUUUUG [C11G C40G G42U C73G U87A], the “polymerase ribozyme fitness (log ratio)” value was -4.66.

Consider GACCAAUCUGCCCUCAGAGCUCGAGAACAUCUUCGGAUGCAGCGGAGCCAGGCUUCGGUGGCGCGAUAGCACCAACGUCCUCAACCUCCAAUGCAUCCCACCACAUGAUGAUGCCUGAAGAGCCUUGGUUUUUUG [A43C G48C G71A], for which the “polymerase ribozyme fitness (log ratio)” value was -4.5.

For GACCAAUCUGCCCUCAGAGCUCGAGAACAUCUUCGGAUGCAGAGGAGGCAUGCUUCGGUGGCACGAUAGCGCCAACGUCCUCAACCUCCAAUGCAUCCCACCACAUGAUGAUGCCUUAAGAGCCUUGGUUUUUUG [G51U G63A G117U], the “polymerase ribozyme fitness (log ratio)” value is -5.99.

GACCAAUCUGCCCUCAGAGCUCGAGAACAUCUUCGGAUGCAGAGGAGGCAGGCUUCGGUGGCGCGAUAGCGCCAACGUCCUCAACCUCCCAUGCAUCCCACCACAUGAUGAUGCCUUAAGAGCCUUGGUUUUUUG [A90C G117U]: the “polymerase ribozyme fitness (log ratio)” value was -3.98.

As to GACCAAUCUGCCCUCAGAGCUCGAGAACAUCUUCGGAUGAAGAGGAGGCAGGAUUCUGUGGCGCGAUAGCGCCAACGUCCUCAACCUCCAAUGCAUCCCACCACAUGAUGAUGCCUGAAGAGCCUUGGUUUUUUG [C40A C53A G57U], the “polymerase ribozyme fitness (log ratio)” value was -0.732.

As for GACCAAUCUGCCCUCAGAGCUCGAGAACAUCUUCGGAUGCAGAGGAGGUAGGCUUCGGUGGCGCGAUAGCGCCCACGUCCUCAACCUCCAAUGCAUCCCACCACAUGAUGAUGCCUGAAGAGCCUUGGUUUUUUG [C49U A74C], the “polymerase ribozyme fitness (log ratio)” value was -0.435.

Turning to GACCAAUCUGCCCUAAGAGCUCGAGAACAUCUUCGGAUGCAGAGGAGGCAGGCUUCGGUGGCGCGAUAGCACCAACGUCCUCAACCUCCAGUGCAUCCCACCACAUGAUGAACCCUGAAGAGCCUUGGUUUUUUG [C15A G71A A91G U112A G113C], the “polymerase ribozyme fitness (log ratio)” value was -5.47.

In the case of GACCUAUCUGCCCUCAGAGCUCGAGAAGAUCUUCGGAUGCAGAGGAGGCAGGCUUCGGUGGCGCGAUAGCGCCAACGUCCUCAACCUCCAAUGCAACCCACCACAUGAUGAUGUCUGAAGAGCCUUGGUUUUUUG [A5U C28G U96A C114U], the “polymerase ribozyme fitness (log ratio)” value was -5.96.

For the variant GACCAAUCUGCCCUCAGAGCUCGAGAACAUCUUCGGGUGCAGAGGGGGCAGGCUUCGGUGGCGCGAUAGCGCCAACGUCCUCCACCUCCAAUGCAUCCCACCACAUGAUGAUGCCUGAAGAGCCUUGGUUUUUUG [A37G A46G A83C], the “polymerase ribozyme fitness (log ratio)” value was -2.03.

As to GACCAAUCUGCCCUCAGAGCUCGAGAACAUCUUCGGAUGCAGAGGAUGCAGGCUUCAGUGGCGCGAUAGCGCCAACGUCCUCAACCUCCAAUGCAUCCCACCACAGGAUGAUGCCUGAAGAGCCUUGGUUUAUUG [G47U G57A U106G U132A], the “polymerase ribozyme fitness (log ratio)” value is -4.76.

On to GACCAAUCUGCCCUCAGAGCUCGAGAACAUCUUCGGAUGCAGAGGAGGCAUGUUUCGGUGUCGCGAUAGCGCCAACGUCCUCAACCUCCAAUGCAUCCCACCACAUGAUGAUGCCUGAAGAGCCUUGGUAUUUUG [G51U C53U G61U U130A], for which the “polymerase ribozyme fitness (log ratio)” value was -3.08.

Consider GACCAAUCUGUCCUCAGAGCUCGAGAACAUCUUCGGAUUCAGAGGAGGCAGGCUUCGGUGGCGCGAUAGCGCCAACGUCCUCAACCUCCAAUGCAUCCCACCACAUGAUGAUGCCUGAAGAGCCUUGGUUUUUUG [C11U G39U], for which the “polymerase ribozyme fitness (log ratio)” value is -1.37.

In the case of GACCAAUCUGCCCUCAGAGCUCGAGAACAUCUUCGUAUGCAGAGGAGGCAGGCUGCGGUGGCGCGAUAGCGCCAACGUCCUCUACCUCCAAUGCAUCCCACCACAUGAUAAUGCCUGAAGAGCCUUGGUGUUUUG [G36U U55G A83U G110A U130G], the “polymerase ribozyme fitness (log ratio)” value was -5.37.

The record behind these values is the RNAGym collection of RNA variant scans (doi:10.1073/pnas.2313332121).
